Biological target: cyclin T1 (native 87 kDa protein of HeLa nuclear extract) (human)
Test: GST-Tat bead pull-down from HeLa nuclear extract, SDS-PAGE, silver stain

Sequence of cyclin T1 (native 87 kDa protein of HeLa nuclear extract) (human) (chain, as listed by the source limits assumed): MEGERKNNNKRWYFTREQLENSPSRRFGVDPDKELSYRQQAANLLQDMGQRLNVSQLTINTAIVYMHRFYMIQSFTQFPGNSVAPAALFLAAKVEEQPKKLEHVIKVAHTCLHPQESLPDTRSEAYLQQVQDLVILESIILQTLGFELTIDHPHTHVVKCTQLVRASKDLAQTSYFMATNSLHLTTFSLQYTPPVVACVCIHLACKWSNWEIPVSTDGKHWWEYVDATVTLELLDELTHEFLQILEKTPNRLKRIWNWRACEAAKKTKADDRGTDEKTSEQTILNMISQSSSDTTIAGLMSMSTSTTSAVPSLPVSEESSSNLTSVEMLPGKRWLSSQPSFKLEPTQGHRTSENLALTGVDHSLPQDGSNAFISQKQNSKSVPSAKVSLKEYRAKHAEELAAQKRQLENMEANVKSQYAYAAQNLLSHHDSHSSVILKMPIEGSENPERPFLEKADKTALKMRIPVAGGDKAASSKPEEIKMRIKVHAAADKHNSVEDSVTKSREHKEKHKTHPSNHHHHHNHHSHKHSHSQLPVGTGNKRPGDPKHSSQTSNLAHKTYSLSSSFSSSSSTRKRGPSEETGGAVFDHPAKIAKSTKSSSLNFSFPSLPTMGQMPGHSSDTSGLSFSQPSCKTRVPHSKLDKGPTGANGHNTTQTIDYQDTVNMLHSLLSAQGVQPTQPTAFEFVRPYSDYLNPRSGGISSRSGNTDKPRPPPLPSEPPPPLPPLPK

MEPVDPRLEPWKHPGSQPKTACTNCYCKKCCFHCQVCFITAALGISYG (other) [GST-Tat-1 K41A (aa 1-48)]: no binding.
